Test results as given in patent publication US12577303B2.
Where two headings read alike, the source gives them in different places. One block for each binder: values may come before it.

Legend:
[1] = target: human Sirpα-V1 recombinant protein (human) (UniProt P78324); experiment: ELISA
[2] = target: human Sirpα-V1-hFc (human) (UniProt P78324); experiment: blocking ELISA: hSirpα (dimer) to hCD47
[3] = target: human Sirpα-V1-his (human) (UniProt P78324); experiment: blocking ELISA: hSirpα to hCD47 (dimer)
[4] = target: human Sirpα-V1-hFc (human) (UniProt P78324); experiment: blocking ELISA: hSirpα-V1-hFc (dimer), hCD47-his
[5] = target: human Sirpα-V1-his (human) (UniProt P78324); experiment: blocking ELISA: hSirpα-V1-his, hCD47-Fc (dimer)
[6] = target: human Sirpα-V1 recombinant protein (human) (UniProt P78324); experiment: ELISA, subclone supernatant
[7] = target: human Sirpα-V2-his (human); experiment: ELISA, subclone supernatant
[8] = target: human Sirpα-V1-his (human) (UniProt P78324); experiment: blocking ELISA: hSirpα to hCD47 (dimer); remark: listed apart in the source
[9] = target: human Sirpα-V1-hFc (human) (UniProt P78324); experiment: blocking ELISA: hSirpα (dimer) to hCD47; remark: listed apart in the source
[10] = target: Cyno Sirpα L936 (cynomolgus); experiment: ELISA
Sequence of Cyno Sirpα L936 (cynomolgus) (chain, as listed by the source): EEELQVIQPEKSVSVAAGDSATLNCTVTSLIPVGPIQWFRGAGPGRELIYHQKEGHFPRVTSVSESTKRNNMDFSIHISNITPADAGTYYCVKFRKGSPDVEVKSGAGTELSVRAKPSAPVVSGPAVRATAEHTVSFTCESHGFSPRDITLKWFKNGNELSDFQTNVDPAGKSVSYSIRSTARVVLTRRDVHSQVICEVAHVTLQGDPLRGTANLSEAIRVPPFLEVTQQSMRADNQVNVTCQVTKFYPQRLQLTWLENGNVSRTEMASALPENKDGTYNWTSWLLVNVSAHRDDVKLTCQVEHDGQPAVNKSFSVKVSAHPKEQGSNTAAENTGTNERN

[11] = target: Cyno Sirpα L932 (cynomolgus); experiment: ELISA
Sequence of Cyno Sirpα L932 (cynomolgus) (chain, as listed by the source): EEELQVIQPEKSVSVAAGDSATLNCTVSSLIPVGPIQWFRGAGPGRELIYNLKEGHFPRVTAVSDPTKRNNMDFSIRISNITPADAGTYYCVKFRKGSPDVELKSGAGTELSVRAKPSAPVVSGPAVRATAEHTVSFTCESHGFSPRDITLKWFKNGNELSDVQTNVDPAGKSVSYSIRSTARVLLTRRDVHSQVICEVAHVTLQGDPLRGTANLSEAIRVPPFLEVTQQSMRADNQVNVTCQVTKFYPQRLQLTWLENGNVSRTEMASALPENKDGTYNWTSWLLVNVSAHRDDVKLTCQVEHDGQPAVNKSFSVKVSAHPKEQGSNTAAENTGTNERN

[12] = target: Cyno Sirpα L933 (cynomolgus); experiment: ELISA
Sequence of Cyno Sirpα L933 (cynomolgus) (chain, as listed by the source): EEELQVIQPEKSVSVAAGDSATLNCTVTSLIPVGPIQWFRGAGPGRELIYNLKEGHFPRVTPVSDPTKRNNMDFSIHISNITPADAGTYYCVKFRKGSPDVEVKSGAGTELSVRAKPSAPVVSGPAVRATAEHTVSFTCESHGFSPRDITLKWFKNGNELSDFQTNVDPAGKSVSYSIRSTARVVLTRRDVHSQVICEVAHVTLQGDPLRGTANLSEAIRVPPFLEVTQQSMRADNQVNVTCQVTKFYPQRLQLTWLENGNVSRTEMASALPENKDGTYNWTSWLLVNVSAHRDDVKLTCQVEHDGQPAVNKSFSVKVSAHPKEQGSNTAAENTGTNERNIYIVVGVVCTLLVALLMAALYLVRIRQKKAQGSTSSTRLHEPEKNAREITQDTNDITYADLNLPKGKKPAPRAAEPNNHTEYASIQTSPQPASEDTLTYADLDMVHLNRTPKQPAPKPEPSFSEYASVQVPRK

[13] = target: human Sirpα-V1 recombinant protein (human) (UniProt P78324); experiment: ELISA; remark: listed apart in the source
[14] = target: human Sirpα-V2-his (human); experiment: ELISA
[15] = target: Cyno Sirpα L937 (cynomolgus); experiment: ELISA
Sequence of Cyno Sirpα L937 (cynomolgus) (chain, as listed by the source): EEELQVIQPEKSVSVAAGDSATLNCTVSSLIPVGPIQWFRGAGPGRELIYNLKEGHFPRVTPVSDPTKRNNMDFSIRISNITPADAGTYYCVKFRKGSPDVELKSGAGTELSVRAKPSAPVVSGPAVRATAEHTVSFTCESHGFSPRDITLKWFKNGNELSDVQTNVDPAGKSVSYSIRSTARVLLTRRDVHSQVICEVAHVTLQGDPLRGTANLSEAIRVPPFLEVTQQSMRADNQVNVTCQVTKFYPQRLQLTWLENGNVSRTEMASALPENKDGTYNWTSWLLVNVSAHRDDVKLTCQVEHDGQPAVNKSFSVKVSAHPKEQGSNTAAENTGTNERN

B1: mab14-h2 (antibody, V domains shown)
VH: QVQLVQSGAEVKKPGASVKVSCKASGYNFNIYWINWVKQAPGQGLEWIGNIYPSSISTNYNEKFKTKATLTVDKSTSTVYMEFSSLRSEDTAVYYCARSEGTYYGGRYEGDWFGYWGQGTLVTVSS
VL: DIQMTQSPSSLSASVGDRVTITCRASQDIRNYLNWYQQKPGGTVKLLIYFTSTLHSGVPSRFSGSGSGTDYTLTISSLQPEDFATYYCQQGNTLPWTFGGGTKVEIKR
EC50 [1]: 0.073 nM

B4: mab14-h3 (antibody, V domains shown)
VH: QVQLVQSGAEVKKPGASVKVSCKASGYNFNIYWINWVRQAPGQGLEWMGNIYPSSISTNYNEKFKTRATLTVDTSTSTVYMELSSLRSEDTAVYYCARSEGTYYGGRYEGDWFGYWGQGTLVTVSS
VL: DIQMTQSPSSLSASVGDRVTITCRASQDIRNYLNWYQQKPGGTVKLLIYFTSTLHSGVPSRFSGSGSGTDYTLTISSLQPEDFATYYCQQGNTLPWTFGGGTKVEIKR
EC50 [1]: 0.103 nM

B6: mab14-h4 (antibody, V domains shown)
VH: QVQLVQSGAEVKKPGASVKVSCKASGYNFNIYWINWVRQAPGQGLEWIGNIYPSSISTNYNEKFKTRATLTVDTSTSTVYMELSSLRSEDTAVYYCARSEGTYYGGRYEGDWFGYWGQGTLVTVSS
VL: DIQMTQSPSSLSASVGDRVTITCRASQDIRNYLNWYQQKPGGTVKLLIYFTSTLHSGVPSRFSGSGSGTDYTLTISSLQPEDFATYYCQQGNTLPWTFGGGTKVEIKR
EC50 [1]: 0.088 nM

B7: 14H6E5B5C8G2 (antibody, V domains shown)
VH: QVHLQQPGAELVKPGASVKLSCKASGYNFNIYWINWVKQRPGQGLEWIGNIYPSSISTNYNEKFKTKATLTVDKSSNTVYMQFSSLTSEDSAVYYCARSEGTYYGGRYEGDWFGYWGQGTLVTVSA
VL: DIQMTQTTSSLSASLGDRVTISCRASQDIRNYLNWYQQKPDGTVKLLIYFTSTLHSGVPSRFSGSGSGTDYSLTISNLEQEDIATYFCQQGNTLPWTFGGGTKLEIK
ELISA value of the blocking assay [4]: 0.069
ELISA value of the blocking assay [5]: 0.42
ELISA value, activity of binding [6]: 1.27
ELISA value, activity of binding [7]: 1.25

B8: human-murine chimeric antibody mab14c (antibody, V domains shown)
VH: QVHLQQPGAELVKPGASVKLSCKASGYNFNIYWINWVKQRPGQGLEWIGNIYPSSISTNYNEKFKTKATLTVDKSSNTVYMQFSSLTSEDSAVYYCARSEGTYYGGRYEGDWFGYWGQGTLVTVSA
VL: DIQMTQTTSSLSASLGDRVTISCRASQDIRNYLNWYQQKPDGTVKLLIYFTSTLHSGVPSRFSGSGSGTDYSLTISNLEQEDIATYFCQQGNTLPWTFGGGTKLEIKR
EC50 [1]: 0.093 nM
IC50 [8]: 5.54 nM
IC50 [9]: 5.7 nM
IC50 [2]: 5.48 nM
IC50 [3]: 9.98 nM
EC50 [10]: 0.099 nM
EC50 [11]: 0.1 nM
EC50 [12]: 0.14 nM
EC50 [13]: 0.16 nM
EC50 [14]: 0.14 nM
EC50 [15]: 0.099 nM

Now from value to binder:

EC50 [1]: 0.095 nM
B2: mab14-h6 (antibody, V domains shown)
VH: QVQLVQSGAEVKKPGASVKVSCKASGYNFNIYWINWVKQAPGQGLEWIGNIYPSSISTNYNEKFKTRATLTVDTSTSTVYMELSSLRSEDTAVYYCARSEGTYYGGRYEGDWFGYWGQGTLVTVSS
VL: DIQMTQSPSSLSASVGDRVTITCRASQDIRNYLNWYQQKPGGTVKLLIYFTSTLHSGVPSRFSGSGSGTDYTLTISSLQPEDFATYYCQQGNTLPWTFGGGTKVEIKR

EC50 [1]: 0.081 nM
B3: mab14-h7 (antibody, V domains shown)
VH: QVQLVQSGAEVKKPGASVKVSCKASGYNFNIYWINWVKQAPGQGLEWIGNIYPSSISTNYNEKFKTKATLTVDTSTSTVYMELSSLRSEDTAVYYCARSEGTYYGGRYEGDWFGYWGQGTLVTVSS
VL: DIQMTQSPSSLSASVGDRVTITCRASQDIRNYLNWYQQKPGGTVKLLIYFTSTLHSGVPSRFSGSGSGTDYTLTISSLQPEDFATYYCQQGNTLPWTFGGGTKVEIKR

EC50 [1]: 0.061 nM
IC50 [2]: 8.99 nM
IC50 [3]: 8.47 nM
B5: mab14-h5 (antibody, V domains shown)
VH: QVQLVQSGAEVKKPGASVKVSCKASGYNFNIYWINWVRQAPGQGLEWIGNIYPSSISTNYNEKFKTRATLTVDKSTSTVYMELSSLRSEDTAVYYCARSEGTYYGGRYEGDWFGYWGQGTLVTVSS
VL: DIQMTQSPSSLSASVGDRVTITCRASQDIRNYLNWYQQKPGGTVKLLIYFTSTLHSGVPSRFSGSGSGTDYTLTISSLQPEDFATYYCQQGNTLPWTFGGGTKVEIKR
